Tests used:
[1] = co-transfection with HA-LAT1, brefeldin washout, confocal; conditions: glycan lost; control: wild type
[2] = surface biotinylation, anti-LAT1 blot; conditions: glycan lost; control: wild type
[3] = cycloheximide chase, anti-FLAG blot; conditions: glycan lost; control: wild type
[4] = brefeldin A washout, confocal time course; conditions: glycan lost; control: wild type
[5] = cell surface biotinylation, anti-FLAG blot; conditions: glycan lost; control: wild type
[6] = confocal, surface anti-CD98 vs anti-FLAG, HEK293; conditions: glycan lost; control: wild type
[7] = tunicamycin then surface biotinylation (Fig. S1); conditions: glycan lost; control: vehicle (DMSO)

B1: CD98 (SLC3A2, 4F2hc): Qm (protein)
parent chain: MELQPPEASIAVVSIPRQLPGSHSEAGVQGLSAGDDSELGSHCVAQTGLELLASGDPLPSASQNAEMIETGSDCVTQAGLQLLASSDPPALASKNAEVTGTMSQDTEVDMKEVELNELEPEKQPMNAASGAAMSLAGAEKNGLVKIKVAEDEAEAAAAAKFTGLSKEELLKVAGSPGWVRTRWALLLLFWLGWLGMLAGAVVIIVRAPRCRELPAQKWWHTGALYRIGDLQAFQGHGAGNLAGLKGRLDYLSSLKVKGLVLGPIHKNQKDDVAQTDLLQIDPNFGSKEDFDSLLQSAKKKSIRVILDLTPNYRGENSWFSTQVDTVATKVKDALEFWLQAGVDGFQVRDIENLKDASSFLAEWQNITKGFSEDRLLIAGTNSSDLQQILSLLESNKDLLLTSSYLSDSGSTGEHTKSLVTQYLNATGNRWCSWSLSQARLLTSFLPAQLLRLYQLMLFTLPGTPVFSYGDEIGLDAAALPGQPMEAPVMLWDESSFPDIPGAVSANMTVKGQSEDPGSLLSLFRRLSDQRSKERSLLHGDFHAFSAGPGLFSYIRHWDQNERFLVVLNFGDVGLSAGLQASDLPASASLPAKADLLLSTQPGREEGSPLELERLKLEPHEGLLLRFPYAA
Q: Which results are given for B1?
A: other: routing of partner LAT1 to plasma membrane [1]: decreases; other: routing of partner LAT1 to plasma membrane [2]: abolishes; degradation_or_half_life, other: percent of initial protein after 6 h [3]: decreases, <20 vs >50; localisation_or_trafficking [4]: decreases; localisation_or_trafficking [5]: decreases

B2: CD98 (SLC3A2, 4F2hc): N424Q (protein)
parent chain: B1 parent chain
Q: For B2, which localisation_or_trafficking [6] is on record?
A: no change

B3: CD98 (SLC3A2, 4F2hc): N506Q (protein)
parent chain: B1 parent chain
Q: With B3 as the protein, how does the localisation_or_trafficking [6] read?
A: no change

B4: CD98 (SLC3A2, 4F2hc): Qm (N365/381/424/506Q) (protein)
parent chain: B1 parent chain
Q: With B4 as the protein, how does the localisation_or_trafficking [6] read?
A: decreases

B5: CD98 (SLC3A2, 4F2hc): N365Q (protein)
parent chain: B1 parent chain
Q: With B5 as the protein, how does the localisation_or_trafficking [6] read?
A: no change

B6: CD98 (SLC3A2, 4F2hc): tunicamycin (protein)
parent chain: B1 parent chain
Q: With B6 as the protein, how does the localisation_or_trafficking [7] read?
A: decreases

B7: CD98 (SLC3A2, 4F2hc): Tm (N365/381/424Q) (protein)
parent chain: B1 parent chain
Q: Which localisation_or_trafficking [6] does the source give for B7 here?
A: changes

B8: CD98 (SLC3A2, 4F2hc): N381Q (protein)
parent chain: B1 parent chain
Q: For B8, which localisation_or_trafficking [6] is on record?
A: no change

B9: CD98 (SLC3A2, 4F2hc): Dm (N381/424Q) (protein)
parent chain: B1 parent chain
Q: With B9 as the protein, how does the localisation_or_trafficking [6] read?
A: changes

— paper PMC9418156
